Experimental data published in PMC3785576.

Molecular target: Bovine dermal collagen type I (bovine) (UniProt P02453)
Experiment: ELISA

Sequence of UniProt P02453 (P02453 162-1217, chain 1 of 2): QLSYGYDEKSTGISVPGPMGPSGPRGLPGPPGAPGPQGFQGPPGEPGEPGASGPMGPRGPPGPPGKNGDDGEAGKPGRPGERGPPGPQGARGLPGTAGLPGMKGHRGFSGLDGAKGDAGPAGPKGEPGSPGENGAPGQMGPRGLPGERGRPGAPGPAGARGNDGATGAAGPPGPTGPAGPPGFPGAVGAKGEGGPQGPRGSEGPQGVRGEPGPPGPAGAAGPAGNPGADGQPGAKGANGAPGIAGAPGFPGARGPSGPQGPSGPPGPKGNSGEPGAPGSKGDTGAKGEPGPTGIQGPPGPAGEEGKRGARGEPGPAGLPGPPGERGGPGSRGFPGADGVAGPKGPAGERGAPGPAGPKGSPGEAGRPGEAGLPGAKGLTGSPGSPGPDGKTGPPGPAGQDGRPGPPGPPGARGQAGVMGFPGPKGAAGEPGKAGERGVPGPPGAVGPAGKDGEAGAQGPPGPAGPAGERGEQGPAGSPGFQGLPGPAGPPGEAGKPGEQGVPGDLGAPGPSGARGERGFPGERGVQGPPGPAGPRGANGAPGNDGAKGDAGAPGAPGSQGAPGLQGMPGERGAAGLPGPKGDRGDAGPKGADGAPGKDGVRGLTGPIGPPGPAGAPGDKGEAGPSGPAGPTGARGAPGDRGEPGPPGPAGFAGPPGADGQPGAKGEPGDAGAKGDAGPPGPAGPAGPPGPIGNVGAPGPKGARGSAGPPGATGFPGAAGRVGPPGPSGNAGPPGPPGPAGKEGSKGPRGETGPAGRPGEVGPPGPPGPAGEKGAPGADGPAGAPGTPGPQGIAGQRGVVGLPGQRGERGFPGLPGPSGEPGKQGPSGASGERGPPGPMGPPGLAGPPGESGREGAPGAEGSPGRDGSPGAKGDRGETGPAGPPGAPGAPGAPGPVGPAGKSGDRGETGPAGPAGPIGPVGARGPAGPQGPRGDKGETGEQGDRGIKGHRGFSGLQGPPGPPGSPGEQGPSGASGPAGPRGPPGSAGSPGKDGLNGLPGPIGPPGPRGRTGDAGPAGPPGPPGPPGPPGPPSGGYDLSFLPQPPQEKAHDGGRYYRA
Sequence of UniProt P02453 (P02465 80-1117, chain 2 of 2, further chain): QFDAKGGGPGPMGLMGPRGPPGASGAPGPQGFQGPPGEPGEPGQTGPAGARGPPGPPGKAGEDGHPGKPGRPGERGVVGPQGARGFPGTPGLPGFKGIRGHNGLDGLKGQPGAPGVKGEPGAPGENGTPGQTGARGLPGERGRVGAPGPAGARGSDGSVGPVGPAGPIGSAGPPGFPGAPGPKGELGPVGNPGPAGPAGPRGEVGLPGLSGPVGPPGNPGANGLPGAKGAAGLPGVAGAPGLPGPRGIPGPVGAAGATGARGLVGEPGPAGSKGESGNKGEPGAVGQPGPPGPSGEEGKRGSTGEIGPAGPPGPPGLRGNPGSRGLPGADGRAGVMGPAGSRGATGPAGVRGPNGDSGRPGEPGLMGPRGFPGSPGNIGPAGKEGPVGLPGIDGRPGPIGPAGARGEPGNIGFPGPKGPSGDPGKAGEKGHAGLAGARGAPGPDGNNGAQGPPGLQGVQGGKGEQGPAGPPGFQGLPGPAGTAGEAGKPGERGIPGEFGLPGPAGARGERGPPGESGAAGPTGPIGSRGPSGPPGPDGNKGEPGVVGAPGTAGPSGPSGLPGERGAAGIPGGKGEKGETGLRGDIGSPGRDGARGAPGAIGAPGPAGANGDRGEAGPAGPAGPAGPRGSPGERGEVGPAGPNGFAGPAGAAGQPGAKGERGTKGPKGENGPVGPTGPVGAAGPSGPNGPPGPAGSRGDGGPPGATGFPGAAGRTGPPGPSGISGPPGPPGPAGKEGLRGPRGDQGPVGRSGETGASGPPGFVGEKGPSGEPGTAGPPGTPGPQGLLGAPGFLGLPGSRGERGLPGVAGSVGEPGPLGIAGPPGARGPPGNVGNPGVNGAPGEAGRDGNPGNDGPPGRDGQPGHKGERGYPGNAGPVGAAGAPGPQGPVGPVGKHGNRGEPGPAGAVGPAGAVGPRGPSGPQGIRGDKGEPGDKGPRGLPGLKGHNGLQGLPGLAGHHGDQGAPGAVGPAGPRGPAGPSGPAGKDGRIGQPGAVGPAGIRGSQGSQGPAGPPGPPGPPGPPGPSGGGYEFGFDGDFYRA

IC50 [nM]	Substance
7.85	Fc-tagged extracellular domain of human DDR1 (dimeric DDR1-Fc) (from UniProt Q08345 21-417) (Fc fusion)
2.5	Antibody (anti-Fc) induced oligomers of DDR1-Fc (from UniProt Q08345 21-417) (complex)
